# Assay results taken from US20260201033A1 (LTZ THERAPEUTICS, published 2026).
# Where a chain is given by its changes, count along the chain named.
# T1: CD79b on Ramos cells and on endogenous B cells of human PBMCs (human, UniProt P40259 29-229)
# T1 sequence (looked up): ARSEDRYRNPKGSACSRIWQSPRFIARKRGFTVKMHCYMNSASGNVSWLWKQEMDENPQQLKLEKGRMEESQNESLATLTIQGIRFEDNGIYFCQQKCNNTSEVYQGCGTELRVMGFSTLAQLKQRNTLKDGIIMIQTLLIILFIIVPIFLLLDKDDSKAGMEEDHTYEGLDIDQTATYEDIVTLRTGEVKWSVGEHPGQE
# T2: Human C-type lectin domain family 5 member A (CLEC5A), endogenous on human monocytes and M0 macrophages (human, UniProt Q9NY25 1-188)
# T2 construct: Endogenous CLEC5A on primary human monocytes and monocyte-derived M0 macrophages; also called MDL-1; M0 macrophages (CLEC5A+) cells
# T2 sequence: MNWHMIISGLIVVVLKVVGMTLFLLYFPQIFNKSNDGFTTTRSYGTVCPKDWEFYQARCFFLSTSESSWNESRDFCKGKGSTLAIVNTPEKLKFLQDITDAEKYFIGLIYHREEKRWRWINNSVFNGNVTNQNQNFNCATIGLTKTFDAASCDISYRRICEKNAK
# B1: CD79b/5C7 (2+1 B) Fc-silenced (bispecific antibody, human IgG1, kappa, L234A L235A)
# heavy 1: EQQLVETGGGLIQPGGSLRLSCAASGFTINIDYWISWVRQAPGKGLEWIGIIDPGDGTTYFAIWVSGRFTISFDNSKNTVYLQMNSLRAEDTAVYFCVREFSASAYQYDLWGPGTLVTVSSASTKGPSVFPLAPSSKSTSGGTAALGCLVKDYFPEPVTVSWNSGALTSGVHTFPAVLQSSGLYSLSSVVTVPSSSLGTQTYICNVNHKPSNTKVDKKVEPKSCDKTHTCPPCPAPEAAGGPSVFLFPPKPKDTLMISRTPEVTCVVVDVSHEDPEVKFNWYVDGVEVHNAKTKPREEQYNSTYRVVSVLTVLHQDWLNGKEYKCKVSNKALGAPIEKTISKAKGQPREPQVCTLPPSRDELTKNQVSLSCAVKGFYPSDIAVEWESNGQPENNYKTTPPVLDSDGSFFLVSKLTVDKSRWQQGNVFSCSVMHEALHNRFTQKSLSLSPGK
# heavy 2: not shown
# light: ELVMTQSPATLSVSPGERATLSCRASEDIENYLAWYQQKPGQPPRLLIYRASTLSSGVPARFSGSGSGTEFTLTISSLQSEDFAVYYCQQGYRNSNVDNPFGGGTKVEIKRTVAAPSVFIFPPSDEQLKSGTASVVCLLNNFYPREAKVQWKVDNALQSGNSQESVTEQDSKDSTYSLSSTLTLSKADYEKHKVYACEVTHQGLSSPVTKSFNRGEC
# B2: CD79b/5C7 (2+1 B) Fc-optimized (bispecific antibody, human IgG1, kappa)
# heavy 1: B1 heavy 1 with A238L, A239L, G240A, G333P, A334L, I336E, C353Y, R439H, F440Y
# heavy 2: EQQLVETGGGLIQPGGSLRLSCAASGFTINIDYWISWVRQAPGKGLEWIGIIDPGDGTTYFAIWVSGRFTISFDNSKNTVYLQMNSLRAEDTAVYFCVREFSASAYQYDLWGPGTLVTVSSASTKGPSVFPLAPSSKSTSGGTAALGCLVKDYFPEPVTVSWNSGALTSGVHTFPAVLQSSGLYSLSSVVTVPSSSLGTQTYICNVNHKPSNTKVDKKVEPKSCDKTHTCPPCPAPELLAGPSVFLFPPKPKDTLMISRTPEVTCVVVDVSHEDPEVKFNWYVDGVEVHNAKTKPREEQYNSTYRVVSVLTVLHQDWLNGKEYKCKVSNKALPLPEEKTISKAKGQPREPQVYTLPPSRDELTKNQVSLWCLVKGFYPSDIAVEWESNGQPENNYKTTPPVLDSDGSFFLYSKLTVDKSRWQQGNVFSCSVMHEALHNHYTQKSLSLSPGKGGGGSGGGGSGGGGSDIQMTQSPSSLSASVGDRVTITCQASESVDRNNRLAWFQQKPGKPPKLLIYTTSTLASGVPSRFSGSGSGTDFTLTISSLQPEDVATYYCAGYRGAHTDGDAFGGGTKVEIKGGGGSGGGGSGGGGSGGGGSEQQLVESGGGLVKPGGSLRLSCAASGFSFSRSSYMCWVRQAPGKGLEWIGCLSVGDGHTYYASWAKGRFTISKDSAKNSVYLQMNSLRAEDTAVYFCARAPSYSGDGGHGYDLWGPGTLVTVSS
# light: B1 light
# B3: CD79b/5C7 (1+1 B) Fc-optimized (bispecific antibody, human IgG1, kappa)
# heavy 1: B1 heavy 1 with A238L, A239L, G240A, G333P, A334L, I336E, C353Y, R439H, F440Y
# heavy 2: DIQMTQSPSSLSASVGDRVTITCQASESVDRNNRLAWFQQKPGKPPKLLIYTTSTLASGVPSRFSGSGSGTDFTLTISSLQPEDVATYYCAGYRGAHTDGDAFGGGTKVEIKGGGGSGGGGSGGGGSGGGGSEQQLVESGGGLVKPGGSLRLSCAASGFSFSRSSYMCWVRQAPGKGLEWIGCLSVGDGHTYYASWAKGRFTISKDSAKNSVYLQMNSLRAEDTAVYFCARAPSYSGDGGHGYDLWGPGTLVTVSSDKTHTCPPCPAPELLAGPSVFLFPPKPKDTLMISRTPEVTCVVVDVSHEDPEVKFNWYVDGVEVHNAKTKPREEQYNSTYRVVSVLTVLHQDWLNGKEYKCKVSNKALPLPEEKTISKAKGQPREPQVYTLPPSRDELTKNQVSLWCLVKGFYPSDIAVEWESNGQPENNYKTTPPVLDSDGSFFLYSKLTVDKSRWQQGNVFSCSVMHEALHNHYTQKSLSLSPGK
# light: B1 light
# B4: CD79b/5C7 (1+1 B) Fc-silenced (bispecific antibody, human IgG1, kappa, L234A L235A)
# heavy 1: B1 heavy 1
# heavy 2: not shown
# light: B1 light
# B5: CD79b/5C7 (2+2 B) Fc-silenced (bispecific antibody, human IgG1, kappa, L234A L235A)
# heavy: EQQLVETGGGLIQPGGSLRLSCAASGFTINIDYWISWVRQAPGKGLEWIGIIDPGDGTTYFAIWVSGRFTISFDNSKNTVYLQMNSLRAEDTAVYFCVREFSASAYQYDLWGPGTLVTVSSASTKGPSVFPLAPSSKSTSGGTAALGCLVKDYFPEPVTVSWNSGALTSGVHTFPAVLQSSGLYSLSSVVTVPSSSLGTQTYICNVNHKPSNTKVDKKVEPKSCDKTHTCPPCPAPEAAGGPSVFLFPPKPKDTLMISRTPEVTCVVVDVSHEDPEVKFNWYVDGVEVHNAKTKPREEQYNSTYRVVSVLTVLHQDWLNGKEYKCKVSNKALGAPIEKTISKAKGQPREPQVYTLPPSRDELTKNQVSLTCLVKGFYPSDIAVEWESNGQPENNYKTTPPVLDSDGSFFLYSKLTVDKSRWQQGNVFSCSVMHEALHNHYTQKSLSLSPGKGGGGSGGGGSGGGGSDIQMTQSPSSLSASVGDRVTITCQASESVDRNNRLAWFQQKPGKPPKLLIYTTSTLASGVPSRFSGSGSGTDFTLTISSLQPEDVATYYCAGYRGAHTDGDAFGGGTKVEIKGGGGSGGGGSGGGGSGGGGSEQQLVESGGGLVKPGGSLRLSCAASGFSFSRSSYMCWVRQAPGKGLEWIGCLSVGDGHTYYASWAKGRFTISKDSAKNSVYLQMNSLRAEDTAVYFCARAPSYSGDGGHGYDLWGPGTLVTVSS
# light: B1 light
# B6: 6G9, chimeric rabbit/human IgG1 anti-CLEC5A antibody (Fc-silenced) (antibody, V domains shown)
# VH: QSLEESGGDLVKPGASLTLTCTASGFSFTSNKYMCWVRQAPGKGPEWIACIYVGDGNTYYASWAKGRFTISKTSSTTVTLQMTSLTVADTATYFCARGGDYSIGGGGFASNLWGPGTLVTVSS
# VL: AFELTQTPSSVEAAVGGTVTINCQASESISNFLAWYRQKPGQPPKLLIYRASTLASGVSSRFKGSGSGTEFTLTISDLEPADGASYYCQSYYGTSSTGHNVFGGGTEVVVK
# notes: also called ch6G9
# B7: CD79b/5C7 (2+1 A) Fc-silenced (bispecific antibody, human IgG1, kappa, L234A L235A)
# heavy 1: EQQLVETGGGLIQPGGSLRLSCAASGFTINIDYWISWVRQAPGKGLEWIGIIDPGDGTTYFAIWVSGRFTISFDNSKNTVYLQMNSLRAEDTAVYFCVREFSASAYQYDLWGPGTLVTVSSASTKGPSVFPLAPSSKSTSGGTAALGCLVKDYFPEPVTVSWNSGALTSGVHTFPAVLQSSGLYSLSSVVTVPSSSLGTQTYICNVNHKPSNTKVDKKVEPKSCDGGGGSGGGGSGGGGSEQQLVETGGGLIQPGGSLRLSCAASGFTINIDYWISWVRQAPGKGLEWIGIIDPGDGTTYFAIWVSGRFTISFDNSKNTVYLQMNSLRAEDTAVYFCVREFSASAYQYDLWGPGTLVTVSSASTKGPSVFPLAPSSKSTSGGTAALGCLVKDYFPEPVTVSWNSGALTSGVHTFPAVLQSSGLYSLSSVVTVPSSSLGTQTYICNVNHKPSNTKVDKKVEPKSCDKTHTCPPCPAPEAAGGPSVFLFPPKPKDTLMISRTPEVTCVVVDVSHEDPEVKFNWYVDGVEVHNAKTKPREEQYNSTYRVVSVLTVLHQDWLNGKEYKCKVSNKALGAPIEKTISKAKGQPREPQVCTLPPSRDELTKNQVSLSCAVKGFYPSDIAVEWESNGQPENNYKTTPPVLDSDGSFFLVSKLTVDKSRWQQGNVFSCSVMHEALHNRFTQKSLSLSPGK
# heavy 2: not shown
# light: B1 light
# Biological target: T1, CD79b on Ramos cells and on endogenous …
# Assay: cell-based or functional assay
Binder,"IC50 (nM), Ramos cell killing by PBMCs (test 2), Donor 431 [nM]","IC50 (nM), Ramos cell killing by PBMCs (test 2), Donor 234 [nM]"
B1,0.0155,–
B2,0.0104,0.0639
B3,0.0253,–
B4,0.0329,–
B5,0.0062,–

# Biological target: T2, Human C-type lectin domain family 5 …
# Assay: flow cytometry on human M0 macrophages, anti-human IgG PE
# Description: About 50,000 M0 macrophages were incubated with serially diluted antibodies in FACS buffer (PBS+0.5% BSA) for 30 minutes on ice. […] For analysis, the mean fluorescence intensity (MFI of PE) of each antibody was determined and plotted using GraphPad Prism software (Version 9.4.1; GraphPad Software Inc.).
row,Binder,EC50 [pM]
1,B6,6840

# Biological target: T1, CD79b on Ramos cells and on endogenous …
# Assay: cell-based or functional assay
# Remark: another data set of the same source
Binder,"IC50 (nM), Ramos cell killing by M0 macrophages, Donor 022 [nM]","IC50 (nM), Ramos cell killing by M0 macrophages, Donor 431 [nM]","IC50 (nM), Ramos cell killing by M0 macrophages, Donor 100 [nM]","IC50 (nM), Ramos cell killing by M0 macrophages, Donor 233 [nM]","IC50 (nM), Ramos cell killing by M0 macrophages, Donor 159 [nM]","IC50 (nM), Ramos cell killing by M0 macrophages, Donor 161 [nM]"
B1,0.003,0.002,–,–,–,–
B2,0.003,0.004,–,–,–,–
B3,–,0.003,–,–,–,–
B7,0.003,–,0.002,–,–,–
B4,–,0.004,0.006,0.003,–,–
B5,0.002,–,0.0008,0.002,0.001,0.0008

# Biological target: T1, CD79b on Ramos cells and on endogenous …
# Assay: cell-based or functional assay
# Remark: another data set of the same source
Binder,"IC50 (nM), killing of endogenous B cells by PBMCs, Donor 367 [nM]","IC50 (nM), killing of endogenous B cells by PBMCs, Donor 431 [nM]","IC50 (nM), killing of endogenous B cells by PBMCs, Donor 234 [nM]","IC50 (nM), killing of endogenous B cells by PBMCs, Donor 023 [nM]"
B1,0.0155,0.0155,–,–
B2,0.104,0.104,0.0207,–
B3,0.0253,0.0253,–,–
B4,0.0329,0.0329,–,0.0833
B5,0.00617,0.00617,–,0.0231

# Biological target: T1, CD79b on Ramos cells and on endogenous …
# Assay: cell-based or functional assay
# Remark: another data set of the same source
Binder,"IC50 (nM), Ramos cell killing by M1 macrophages, Donor 431 [nM]","IC50 (nM), Ramos cell killing by M1 macrophages, Donor 100 [nM]"
B1,0.005,–
B2,0.005,–
B3,0.006,–
B7,–,0.001
B4,0.005,0.001
B5,0.0014,0.0007

# Biological target: T1, CD79b on Ramos cells and on endogenous …
# Assay: cell-based or functional assay
# Remark: another data set of the same source
Binder,"IC50 (nM), Ramos cell killing by M2 macrophages, Donor 022 [nM]","IC50 (nM), Ramos cell killing by M2 macrophages, Donor 431 [nM]","IC50 (nM), Ramos cell killing by M2 macrophages, Donor 100 [nM]","IC50 (nM), Ramos cell killing by M2 macrophages, Donor 233 [nM]"
B1,0.002,0.002,–,–
B2,0.002,0.001,–,–
B3,–,0.001,–,–
B7,0.003,–,0.001,–
B4,–,0.003,0.002,0.005
B5,0.001,0.0009,0.0004,0.002

# Biological target: T1, CD79b on Ramos cells and on endogenous …
# Assay: cell-based or functional assay
# Remark: another data set of the same source
Binder,"IC50 (nM), Ramos cell killing by PBMCs (test 3), Donor 281 [nM]","IC50 (nM), Ramos cell killing by PBMCs (test 3), Donor 367 [nM]","IC50 (nM), Ramos cell killing by PBMCs (test 3), Donor 022 [nM]"
B1,0.0165,0.0685,–
B2,0.0112,0.0186,–
B3,0.0123,0.841,–
B4,0.0452,0.29,0.334
B5,0.043,0.0643,0.131
